Assay [1] deals with T1, GHRH receptor of human pituitary membranes (human, UniProt Q02643).
T1 sequence: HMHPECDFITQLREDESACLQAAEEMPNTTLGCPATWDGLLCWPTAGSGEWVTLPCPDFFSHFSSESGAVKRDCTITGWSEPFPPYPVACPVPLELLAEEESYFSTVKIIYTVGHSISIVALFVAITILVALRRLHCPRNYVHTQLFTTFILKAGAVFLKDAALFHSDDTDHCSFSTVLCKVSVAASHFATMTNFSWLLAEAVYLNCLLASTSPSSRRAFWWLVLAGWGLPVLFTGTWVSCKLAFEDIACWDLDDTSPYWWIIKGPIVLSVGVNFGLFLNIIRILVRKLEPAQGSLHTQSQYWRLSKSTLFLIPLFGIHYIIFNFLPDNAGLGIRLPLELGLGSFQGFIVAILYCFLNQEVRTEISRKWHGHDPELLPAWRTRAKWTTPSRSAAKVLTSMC
The assay can be described thus: competition vs 125I-JV-1-42, human pituitary membranes.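 Further: pituitaries used were normal human glands.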
Description: Normal human pituitaries were purchased from the National Hormone and Peptide Program (A.F. Parlow, Los Angeles, County Harbor-UCLA Medical Center, Torrance, Calif.).

The target in assay [2] is T1, GHRH receptor of human pituitary …. The assay can be described thus: competition vs 125I-[His1,Nle27]hGHRH(1-32)NH2, human pituitary membranes.
Description: Normal human pituitary was purchased from the National Hormone and Peptide Program (UCLA Medical Center, Torrance, Calif.).

Non-standard residues stand in square brackets, D forms with d. No end group written: not given here. *: point of attachment. Phe(F5) = N[C@@H](Cc1c(F)c(F)c(F)c(F)c1F)C(=O)O; Desaminotyrosyl = O=C(CCc1ccc(O)cc1)*; NMeY = CN[C@@H](Cc1ccc(O)cc1)C(=O)O; Nle = CCCC[C@H](N)C(=O)O; Orn = NCCC[C@H](N)C(=O)O; Abu = CC[C@H](N)C(=O)O; Ava = NCCCCC(=O)O

In general, IC50 refers to the concentration needed to halve the response being measured. With [NMeY][dA]DAIFTQSYR[Orn]VL[Abu]QLSAR[Orn]LLQDI[Nle]DR-NHEt [P-28420 [N-Me-Tyr^1, D-Ala^2, Gln^8, Orn^12, Abu^15, Orn^21, Nle^27, Asp^28]hGHRH(1-29)NH-CH2-CH3], in assay [1], the IC50 came out at 0.52 nM and the “relative affinity (binding potency) vs JI-38” value (“relative affinity … vs JI-38” below) worked out at 8.37 vs JI-38=1. In assay [2], the IC50 was 2.7 nM, the “relative affinity (binding potency) compared to JI-38” value (“relative affinity … to JI-38” for short) amounted to 1.01 vs JI-38=1 and the “relative affinity (binding potency) compared to hGHRH(1-29)” value (“relative affinity … to hGHRH(1-29)” for short) is 2.83 vs hGHRH(1-29)NH2=1.

For [NMeY]ADAIFTQSYR[Orn]VL[Abu]QLSAR[Orn]LLQDI[Nle]SR-NHMe [P-27405 [N-Me-Tyr^1, Gln^8, Orn^12, Abu^15, Orn^21, Nle^27]hGHRH(1-29)NH-CH3], in assay [1], the IC50 amounted to 1.08 nM and the “relative affinity … vs JI-38” value was found to be 4.03 vs JI-38=1. In addition, in assay [2], the “relative affinity … to JI-38” value is 1.09 vs JI-38=1 and the “relative affinity … to hGHRH(1-29)” value was 3.04 vs hGHRH(1-29)NH2=1.

B1: P-27407 [Dat^1, Gln^8, Orn^12, Abu^15, Orn^21, Nle^27, Asp^28]hGHRH(1-29)NH-CH3 (peptide)
peptide: [Desaminotyrosyl]ADAIFTQSYR[Orn]VL[Abu]QLSAR[Orn]LLQDI[Nle]DR-NHMe
SMILES: CCCC[C@H](NC(=O)[C@@H](NC(=O)[C@H](CC(=O)O)NC(=O)[C@H](CCC(N)=O)NC(=O)[C@H](CC(C)C)NC(=O)[C@H](CC(C)C)NC(=O)[C@H](CCCN)NC(=O)[C@H](CCCNC(=N)N)NC(=O)[C@H](C)NC(=O)[C@H](CO)NC(=O)[C@H](CC(C)C)NC(=O)[C@H](CCC(N)=O)NC(=O)[C@H](CC)NC(=O)[C@H](CC(C)C)NC(=O)[C@@H](NC(=O)[C@H](CCCN)NC(=O)[C@H](CCCNC(=N)N)NC(=O)[C@H](Cc1ccc(O)cc1)NC(=O)[C@H](CO)NC(=O)[C@H](CCC(N)=O)NC(=O)[C@@H](NC(=O)[C@H](Cc1ccccc1)NC(=O)[C@@H](NC(=O)[C@H](C)NC(=O)[C@H](CC(=O)O)NC(=O)[C@H](C)NC(=O)CCc1ccc(O)cc1)[C@@H](C)CC)[C@@H](C)O)C(C)C)[C@@H](C)CC)C(=O)N[C@@H](CC(=O)O)C(=O)N[C@@H](CCCNC(=N)N)C(=O)NC
Take B1: in assay [1], the IC50 was determined as 3 nM and the “relative affinity … vs JI-38” value came to 1.45 vs JI-38=1. Further, in assay [2], the “relative affinity … to JI-38” value came to 0.54 vs JI-38=1 and the “relative affinity … to hGHRH(1-29)” value is 1.52 vs hGHRH(1-29)NH2=1.

B2: P-22326 [N-Me-Tyr^1, D-Ala^2, Gln^8, Orn^12, Abu^15, Orn^21, Nle^27, Asp^28, Apa^30]hGHRH(1-30)NH2 (peptide)
peptide: [NMeY][dA]DAIFTQSYR[Orn]VL[Abu]QLSAR[Orn]LLQDI[Nle]DR[Ava]-NH2
modifications: N-terminus assumed
SMILES: CCCC[C@H](NC(=O)[C@@H](NC(=O)[C@H](CC(=O)O)NC(=O)[C@H](CCC(N)=O)NC(=O)[C@H](CC(C)C)NC(=O)[C@H](CC(C)C)NC(=O)[C@H](CCCN)NC(=O)[C@H](CCCNC(=N)N)NC(=O)[C@H](C)NC(=O)[C@H](CO)NC(=O)[C@H](CC(C)C)NC(=O)[C@H](CCC(N)=O)NC(=O)[C@H](CC)NC(=O)[C@H](CC(C)C)NC(=O)[C@@H](NC(=O)[C@H](CCCN)NC(=O)[C@H](CCCNC(=N)N)NC(=O)[C@H](Cc1ccc(O)cc1)NC(=O)[C@H](CO)NC(=O)[C@H](CCC(N)=O)NC(=O)[C@@H](NC(=O)[C@H](Cc1ccccc1)NC(=O)[C@@H](NC(=O)[C@H](C)NC(=O)[C@H](CC(=O)O)NC(=O)[C@@H](C)NC(=O)[C@H](Cc1ccc(O)cc1)NC)[C@@H](C)CC)[C@@H](C)O)C(C)C)[C@@H](C)CC)C(=O)N[C@@H](CC(=O)O)C(=O)N[C@@H](CCCNC(=N)N)C(=O)NCCCCC(N)=O
With B2, in assay [1], the IC50 came to 0.71 nM and the “relative affinity … vs JI-38” value was determined as 6.12 vs JI-38=1. Moreover, in assay [2], the IC50 is 0.98 nM, the “relative affinity … to JI-38” value worked out at 2.8 vs JI-38=1 and the “relative affinity … to hGHRH(1-29)” value is 7.81 vs hGHRH(1-29)NH2=1.

With [NMeY][dA]DAIFTNSYR[Orn]VL[Abu]QLSAR[Orn]LLQDI[Nle]DR-NHMe [P-27409 [N-Me-Tyr^1, D-Ala^2, Orn^12, Abu^15, Orn^21, Nle^27, Asp^28]hGHRH(1-29)NH-CH3], in assay [1], the IC50 stood at 1.06 nM and the “relative affinity … vs JI-38” value amounted to 4.1 vs JI-38=1. Besides, in assay [2], the IC50 stood at 1.01 nM, the “relative affinity … to JI-38” value amounted to 2.71 vs JI-38=1 and the “relative affinity … to hGHRH(1-29)” value was 7.57 vs hGHRH(1-29)NH2=1.

On to [NMeY][dA]DAI[Phe(F5)]TNSYR[Orn]VL[Abu]QLSAR[Orn]LLQDI[Nle]DR-NHMe [P-27404 [N-Me-Tyr^1, D-Ala^2, Fpa5^6, Orn^12, Abu^15, Orn^21, Nle^27, Asp^28]hGHRH(1-29)NH-CH3], for which, in assay [1], the IC50 came to 0.87 nM and the “relative affinity … vs JI-38” value is 5 vs JI-38=1. In assay [2], the “relative affinity … to JI-38” value came to 2.45 vs JI-38=1 and the “relative affinity … to hGHRH(1-29)” value was 6.83 vs hGHRH(1-29)NH2=1.

B3: P-22327 [Dat^1, Gln^8, Orn^12, Abu^15, Orn^21, Nle^27, Asp^28, Apa^30]hGHRH(1-30)NH2 (peptide)
peptide: [Desaminotyrosyl]ADAIFTQSYR[Orn]VL[Abu]QLSAR[Orn]LLQDI[Nle]DR[Ava]-NH2
SMILES: CCCC[C@H](NC(=O)[C@@H](NC(=O)[C@H](CC(=O)O)NC(=O)[C@H](CCC(N)=O)NC(=O)[C@H](CC(C)C)NC(=O)[C@H](CC(C)C)NC(=O)[C@H](CCCN)NC(=O)[C@H](CCCNC(=N)N)NC(=O)[C@H](C)NC(=O)[C@H](CO)NC(=O)[C@H](CC(C)C)NC(=O)[C@H](CCC(N)=O)NC(=O)[C@H](CC)NC(=O)[C@H](CC(C)C)NC(=O)[C@@H](NC(=O)[C@H](CCCN)NC(=O)[C@H](CCCNC(=N)N)NC(=O)[C@H](Cc1ccc(O)cc1)NC(=O)[C@H](CO)NC(=O)[C@H](CCC(N)=O)NC(=O)[C@@H](NC(=O)[C@H](Cc1ccccc1)NC(=O)[C@@H](NC(=O)[C@H](C)NC(=O)[C@H](CC(=O)O)NC(=O)[C@H](C)NC(=O)CCc1ccc(O)cc1)[C@@H](C)CC)[C@@H](C)O)C(C)C)[C@@H](C)CC)C(=O)N[C@@H](CC(=O)O)C(=O)N[C@@H](CCCNC(=N)N)C(=O)NCCCCC(N)=O
Consider B3, for which, in assay [1], the IC50 was found to be 1.99 nM and the “relative affinity … vs JI-38” value worked out at 2.18 vs JI-38=1. Further, in assay [2], the “relative affinity … to JI-38” value was 1.34 vs JI-38=1 and the “relative affinity … to hGHRH(1-29)” value is 3.75 vs hGHRH(1-29)NH2=1.

Regarding [NMeY][dA]DAIFTNSYR[Orn]VL[Abu]QLSAR[Orn]LLQDI[Nle]DR-NHEt [P-28421 [N-Me-Tyr^1, D-Ala^2, Orn^12, Abu^15, Orn^21, Nle^27, Asp^28]hGHRH(1-29)NH-CH2-CH3], in assay [1], the IC50 turned out to be 1.47 nM and the “relative affinity … vs JI-38” value stood at 2.96 vs JI-38=1. Moreover, in assay [2], the IC50 came out at 3.05 nM, the “relative affinity … to JI-38” value was determined as 0.9 vs JI-38=1 and the “relative affinity … to hGHRH(1-29)” value is 2.5 vs hGHRH(1-29)NH2=1.

Take [NMeY][dA]DAIFTTSYR[Orn]VL[Abu]QLSAR[Orn]LLQDI[Nle]DR-NHMe [P-27410 [N-Me-Tyr^1, D-Ala^2, Thr^8, Orn^12, Abu^15, Orn^21, Nle^27, Asp^28]hGHRH(1-29)NH-CH3]: in assay [1], the IC50 was found to be 0.83 nM and the “relative affinity … vs JI-38” value is 5.24 vs JI-38=1. In assay [2], the IC50 was 1.28 nM, the “relative affinity … to JI-38” value is 2.14 vs JI-38=1 and the “relative affinity … to hGHRH(1-29)” value was 5.98 vs hGHRH(1-29)NH2=1.

For the molecule [NMeY]ADAIFTQSYR[Orn]VL[Abu]QLSAR[Orn]LLQDI[Nle]DR-NHMe [P-27406 [N-Me-Tyr^1, Gln^8, Orn^12, Abu^15, Orn^21, Nle^27, Asp^28]hGHRH(1-29)NH-CH3], in assay [1], the IC50 is 0.3 nM and the “relative affinity … vs JI-38” value was 14.5 vs JI-38=1. Moreover, in assay [2], the “relative affinity … to JI-38” value amounted to 2.95 vs JI-38=1 and the “relative affinity … to hGHRH(1-29)” value is 8.22 vs hGHRH(1-29)NH2=1.

(Values after US20180250358A1, “GHRH AGONISTS FOR THE TREATMENT OF ISCHEMIC DISORDERS” (published 2018).)
